In US20260242478A1 (published 2026):
Where no end group is shown, it is not given here.

B1: Phage-1831 (peptide)
peptide: IIPWCKPAWMCSGM
notes: tested as crude clonal phage supernatant
B2: Phage-1832 (peptide)
peptide: MGKWCIPEWMCNVS
notes: as for B1
B3: Phage-1833 (peptide)
peptide: DIPWCIPPWMCAGS
modifications: cysteine pairing not given here; also: displayed on phage as pIII fusion, pIII sequence and linker not given here
notes: as for B1
B4: Phage-1834 (peptide)
peptide: VERMCMPAWMCDMF
notes: as for B1
B5: Phage-1835 (peptide)
peptide: YEKWCVPDWMCSMI
notes: as for B1
B6: Phage-1836 (peptide)
peptide: WLPMCRPAWMCAGL
modifications: cysteine pairing not given here; also: displayed on phage as pIII fusion, pIII sequence and linker not given here
notes: as for B1
B7: Phage-1837 (peptide)
peptide: GLNWCTPTWMCQGF
notes: as for B1
B8: Phage-1838 (peptide)
peptide: VMKWCIPVWMCGGM
notes: as for B1
B9: Phage-1839 (peptide)
peptide: YDILCRPSWMCSWV
notes: as for B1
B10: Phage-1840 (peptide)
peptide: MVKWCIPSWMCDSV
notes: as for B1
B11: Phage-1841 (peptide)
peptide: TDKWCIPPWMCMLQ
notes: as for B1
B12: Phage-1842 (peptide)
peptide: VERWCVPEWMCHWI
notes: as for B1
B13: Phage-1843 (peptide)
peptide: LDRWCIPEWMCEMF
notes: as for B1
B14: Phage-1844 (peptide)
peptide: TDKLCIPEWMCINW
notes: as for B1
B15: Phage-1845 (peptide)
peptide: FTNWCTPEWMCSGF
notes: as for B1
B16: Phage-1846 (peptide)
peptide: PSMRCIPEWMCAML
modifications: cysteine pairing not given here; also: displayed on phage as pIII fusion, pIII and linker sequences not given here
notes: Clone of the Peptide-180 library
B17: Phage-1847 (peptide)
peptide: SMHWCTPKWMCEGL
modifications: cysteine pairing not given here; also: displayed on phage as pIII fusion, pIII and linker sequences not given here
notes: as for B16
B18: Phage-1848 (peptide)
peptide: AIPWCIPAWMCQVF
modifications: cysteine pairing not given here; also: displayed on phage as pIII fusion, pIII and linker sequences not given here
notes: as for B16
B19: Phage-1849 (peptide)
peptide: FSHWCIPEWMCSTS
modifications: cysteine pairing not given here; also: displayed on phage as pIII fusion, pIII and linker sequences not given here
notes: as for B16
B20: Phage-1850 (peptide)
peptide: PTKLCIPEWMCYVR
modifications: cysteine pairing not given here; also: displayed on phage as pIII fusion, pIII and linker sequences not given here
notes: as for B16
B21: Phage-1851 (peptide)
peptide: SEMLCKPSWMCLGF
modifications: cysteine pairing not given here; also: displayed on phage as pIII fusion, pIII and linker sequences not given here
notes: as for B16
B22: Phage-1852 (peptide)
peptide: WDHWCTPAWMCEFV
modifications: cysteine pairing not given here; also: displayed on phage as pIII fusion, pIII and linker sequences not given here
notes: as for B16
B23: Phage-1853 (peptide)
peptide: MEKWCIPEWMCLHT
modifications: cysteine pairing not given here; also: displayed on phage as pIII fusion, pIII and linker sequences not given here
notes: as for B16
B24: Phage-1854 (peptide)
peptide: WEKWCTPQWMCELI
modifications: cysteine pairing not given here; also: displayed on phage as pIII fusion, pIII and linker sequences not given here
notes: as for B16
B25: Phage-1855 (peptide)
peptide: MEKWCTPSWMCVGF
modifications: cysteine pairing not given here; also: displayed on phage as pIII fusion, pIII and linker sequences not given here
notes: as for B16
B26: Phage-1856 (peptide)
peptide: MGNWCIPTWMCTGF
modifications: cysteine pairing not given here; also: displayed on phage as pIII fusion, pIII and linker sequences not given here
notes: as for B16
B27: Phage-1857 (peptide)
peptide: VMKWCIPSWMCSQD
modifications: cysteine pairing not given here; also: displayed on phage as pIII fusion, pIII and linker sequences not given here
notes: as for B16
B28: Phage-1858 (peptide)
peptide: VDKWCTPIWMCEGF
modifications: cysteine pairing not given here; also: displayed on phage as pIII fusion, pIII and linker sequences not given here
notes: as for B16
B29: Phage-1859 (peptide)
peptide: VEKWCVPTWMCDWV
modifications: cysteine pairing not given here; also: displayed on phage as pIII fusion, pIII and linker sequences not given here
notes: as for B16

How the values were obtained:
[1] = biological target: T1, Anti-PSMA Fab (SEQ ID NOs: 19, 20); test: phage binding ELISA on captured anti-PSMA Fab; PSMA antigen as competitor
T1 construct: Biotinylated and captured on neutravidin coated plates in the phage ELISA; also called 006 PSMA Fab
Method: (§1) Clonal phage were harvested as crude supernatants and screened via standard ELISAs. […] Prior to the addition of clonal phage. wells were incubated with blocking buffer and PSMA antigen or blocking buffer alone. Without washing or aspirating, clonal phage supernatants were then added to the wells and incubated for a short time. Wells were then washed followed by detection of bound phage using a horse radish conjugated anti-M13 antibody.

[2] = biological target: T1, Anti-PSMA Fab (SEQ ID NOs: 19, 20); test: phage binding ELISA; biotinylated anti-PSMA Fab captured on neutravidin, bound phage detected with anti-M13 HRP
Method: as §1

[3] = biological target: T2, Anti-PSMA Fab (SEQ ID NOs: 19, 20); test: phage binding ELISA; PSMA Fab on plate pre-incubated with PSMA antigen as competitor, anti-M13 HRP detection;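 note: crude clonal phage supernatants added without washing to wells preincubated with PSMA in blocking buffer, compared with wells receiving blocking buffer only, then bound phage detected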
T2 construct: Biotinylated PSMA Fab captured on neutravidin coated plates in the phage ELISA; also called 006 PSMA Fab
Method: as §1

[4] = biological target: T2, Anti-PSMA Fab (SEQ ID NOs: 19, 20); test: phage binding ELISA; biotinylated PSMA Fab on neutravidin plate, clonal phage supernatant, anti-M13 HRP detection;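 note: wells were preincubated with blocking buffer either containing PSMA antigen or without it before crude phage supernatant was added, briefly incubated, then washed prior to detection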
Method: as §1

[5] = biological target: T3, Anti-PSMA Fab (SEQ ID NOs: 19, 20); test: phage ELISA; PSMA Fab on plate pre-incubated with PSMA antigen as competitor, anti-M13 HRP detection;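 note: crude clonal phage supernatants added to Fab-coated wells still holding PSMA antigen in blocking buffer, with bound phage as read-out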
T3 construct: In the phage ELISA the Fab was biotinylated and captured on neutravidin coated plates; also called 006 PSMA Fab
Method: as §1

[6] = biological target: T3, Anti-PSMA Fab (SEQ ID NOs: 19, 20); test: phage ELISA; biotinylated PSMA Fab on neutravidin plate, clonal phage supernatant, anti-M13 HRP detection;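 note: wells preincubated with PSMA antigen in blocking buffer or with blocking buffer only before clonal phage were added for a short incubation, then bound phage detected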
Method: as §1

Binder | Anti-PSMA Fab signal in the presence of PSMA [3] | Anti-PSMA Fab (SEQ ID NOs: 19, 20) signal [4] | Phage binding ELISA, Anti-PSMA Fab signal in the presence of PSMA [5] | Phage binding ELISA, Anti-PSMA Fab signal [6] | other results
ISKWCIPEWMCTSP [Phage-1787 (clonal phage displaying the peptide of SEQ ID NO: 2083)] |  |  |  |  | Anti-PSMA Fab signal in the presence of PSMA [1]: 0.107; Anti-PSMA Fab (SEQ ID NOs: 19, 20) signal [2]: 1.73
LEKLCKPAWMCVNF [Phage-1788 (clonal phage displaying the peptide of SEQ ID NO: 2084)] |  |  |  |  | Anti-PSMA Fab signal in the presence of PSMA [1]: 0.107; Anti-PSMA Fab (SEQ ID NOs: 19, 20) signal [2]: 1.66
IDIRCTPIWMCVGF [Phage-1789 (clonal phage displaying the peptide of SEQ ID NO: 2085)] |  |  |  |  | Anti-PSMA Fab signal in the presence of PSMA [1]: 0.0801; Anti-PSMA Fab (SEQ ID NOs: 19, 20) signal [2]: 1.57
B1 | 0.275 | 2.29 |  |  | 
B2 | 0.0652 | 2.29 |  |  | 
B3 | 0.112 | 2.28 |  |  | 
B4 | 0.0862 | 2.28 |  |  | 
B5 | 0.0678 | 2.28 |  |  | 
B6 | 0.0653 | 2.27 |  |  | 
B7 | 0.0833 | 2.26 |  |  | 
B8 | 0.291 | 2.26 |  |  | 
B9 | 0.145 | 2.24 |  |  | 
B10 | 0.109 | 2.23 |  |  | 
B11 | 0.0865 | 2.23 |  |  | 
B12 | 0.0977 | 2.23 |  |  | 
B13 | 0.0928 | 2.22 |  |  | 

Binder | Anti-PSMA Fab signal in the presence of PSMA [3] | Anti-PSMA Fab (SEQ ID NOs: 19, 20) signal [4] | Phage binding ELISA, Anti-PSMA Fab signal in the presence of PSMA [5] | Phage binding ELISA, Anti-PSMA Fab signal [6] | other results
B14 | 0.0602 | 2.22 |  |  | 
B15 | 0.0826 | 2.21 |  |  | 
B16 |  |  | 0.0824 | 2.2 | 
B17 |  |  | 0.147 | 2.2 | 
B18 |  |  | 0.234 | 2.18 | 
B19 |  |  | 0.158 | 2.18 | 
B20 |  |  | 0.0692 | 2.17 | 
B21 |  |  | 0.0726 | 2.17 | 
B22 |  |  | 0.0692 | 2.17 | 
B23 |  |  | 0.0816 | 2.17 | 
B24 |  |  | 0.182 | 2.17 | 
B25 |  |  | 0.148 | 2.17 | 
B26 |  |  | 0.162 | 2.16 | 
B27 |  |  | 0.165 | 2.16 | 
B28 |  |  | 0.0951 | 2.16 | 
B29 |  |  | 0.0833 | 2.16 | 
